Share of the leaves in the class with bound ArfGAP2 data for one substance are collected here from article PMC5482573.

This experiment concerns the target COPI coat leaf (one coatomer complex with two Arf1 molecules) assembled on vesicle membranes (M. musculus | S. cerevisiae) (UniProt Q8CIE6). The experiment is described as follows: cryo-EM structure; COPI coated vesicles with GTPγS incubated 15–20 min with a 10 molar excess of ArfGAP2; subtomogram averaging, difference map and classification; class with ArfGAP2 at 10.1 Å.

Chain of R. norvegicus ArfGAP2, full-length, N-terminally His-tagged (Q3MID3 whole entry): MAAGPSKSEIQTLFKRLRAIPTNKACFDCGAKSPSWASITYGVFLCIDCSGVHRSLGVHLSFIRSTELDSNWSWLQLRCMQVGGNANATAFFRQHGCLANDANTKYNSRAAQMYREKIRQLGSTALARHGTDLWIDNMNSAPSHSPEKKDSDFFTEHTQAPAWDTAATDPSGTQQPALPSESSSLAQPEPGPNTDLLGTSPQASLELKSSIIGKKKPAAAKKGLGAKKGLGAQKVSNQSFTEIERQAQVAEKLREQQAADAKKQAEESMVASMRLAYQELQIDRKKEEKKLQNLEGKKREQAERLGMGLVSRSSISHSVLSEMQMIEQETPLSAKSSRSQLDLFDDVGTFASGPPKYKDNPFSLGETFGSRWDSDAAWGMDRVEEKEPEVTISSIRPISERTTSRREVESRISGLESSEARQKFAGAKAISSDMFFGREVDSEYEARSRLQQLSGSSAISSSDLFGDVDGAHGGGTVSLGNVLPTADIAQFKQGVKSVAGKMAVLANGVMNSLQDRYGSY

In turn, “R. norvegicus ArfGAP2, full-length, N-terminally His-tagged (from UniProt Q3MID3 1-520) (enzyme)” had a share of the leaves in the class with bound ArfGAP2 of 65%.
